# Publication PMC11863153, “Mechanistic Insights Into Oxidative Response of Heat Shock Factor 1 Condensates” (JACS Au, 2025)
# B1: Heat shock factor 1 (Hsf1) wild-type [human] / itself (parent)
# chain: MDLPVGPGAAGPSNVPAFLTKLWTLVSDPDTDALICWSPSGNSFHVFDQGQFAKEVLPKYFKHNNMASFVRQLNMYGFRKVVHIEQGGLVKPERDDTEFQHPCFLRGQEQLLENIKRKVTSVSTLKSEDIKIRQDSVTKLLTDVQLMKGKQECMDSKLLAMKHENEALWREVASLRQKHAQQQKVVNKLIQFLISLVQSNRILGVKRKIPLMLNDSGSAHSMPKYSRQFSLEHVHGSGPYSAPSPAYSSSSLYAPDAVASSGPIISDITELAPASPMASPGGSIDERPLSSSPLVRVKEEPPSPPQSPRVEEASPGRPSSVDTLLSPTALIDSILRESEPAPASVTALTDARGHTDTEGRPPSPPPTSTPEKCLSVACLDKNELSDHLDAMDSNLDNLQTMLSSHGFSVDTSALLDLFSPSVTVPDMSLPDLDSSLASIQELLSPQEPPRPPEAENSSPDSGKQLVHYTAQPLFLLDPGSVDTGSNDLPVLFELGEGSYFSEGDGFAEDPTISLLTGSEPPKAKDPTVS
# Variants of: B1
# Assay: nonreducing SDS-PAGE, quantification of higher-order oligomer bands
# Conditions: with itself; purified Hsf1 mutants; means ± s.d. of three independent experiments; parent: 1; read off a plot
row,Variant,ratio to parent
1,chain 1 C373S C378S,1.4 AU
2,chain 1 C153S,0.46 AU
3,chain 1 C36S C103S,1.1 AU
